In article PMC10786891, “Massively parallel profiling of RNA-targeting CRISPR-Cas13d” one finds Kd data, which are given here for 27 molecules.

Substitutions are numbered along the chain they refer to. Names may count otherwise.

The chains are these.
T1: EsCas13d, nuclease-dead (Eubacterium siraeum, UniProt B0MS50, R295A;H300A;R849A;H854A)
T1 sequence: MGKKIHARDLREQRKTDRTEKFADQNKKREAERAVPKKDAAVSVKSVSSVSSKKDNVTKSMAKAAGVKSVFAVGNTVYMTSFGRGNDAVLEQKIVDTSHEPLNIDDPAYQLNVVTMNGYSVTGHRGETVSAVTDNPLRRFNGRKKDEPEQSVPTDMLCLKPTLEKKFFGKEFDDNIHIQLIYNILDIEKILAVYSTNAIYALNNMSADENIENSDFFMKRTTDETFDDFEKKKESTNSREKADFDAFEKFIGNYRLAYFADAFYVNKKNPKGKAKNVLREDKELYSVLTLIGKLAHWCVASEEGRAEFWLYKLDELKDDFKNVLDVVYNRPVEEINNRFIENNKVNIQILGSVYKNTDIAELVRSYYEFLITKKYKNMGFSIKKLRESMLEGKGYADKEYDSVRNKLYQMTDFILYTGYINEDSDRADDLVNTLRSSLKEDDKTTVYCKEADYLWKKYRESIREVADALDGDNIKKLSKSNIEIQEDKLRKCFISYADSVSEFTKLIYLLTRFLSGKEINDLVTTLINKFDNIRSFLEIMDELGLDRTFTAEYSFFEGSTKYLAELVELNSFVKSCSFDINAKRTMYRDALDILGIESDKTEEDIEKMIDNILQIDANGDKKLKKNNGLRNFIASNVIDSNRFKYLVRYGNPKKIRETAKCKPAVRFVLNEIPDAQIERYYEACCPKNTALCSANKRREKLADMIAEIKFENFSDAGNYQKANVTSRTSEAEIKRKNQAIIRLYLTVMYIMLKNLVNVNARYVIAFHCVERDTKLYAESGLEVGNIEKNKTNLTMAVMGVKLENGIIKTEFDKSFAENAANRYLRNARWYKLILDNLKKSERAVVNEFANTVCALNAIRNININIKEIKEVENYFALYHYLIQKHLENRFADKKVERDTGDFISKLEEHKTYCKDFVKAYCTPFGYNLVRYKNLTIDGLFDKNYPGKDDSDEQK

B1: target 1 A20U (mixed)
RNA 1: CACCCGUGCAAAAAUGCAGGGGUCUAAAACUGAGCGGAUAACCUCUCUAUGG
RNA 2: GGGAAUGGAUCCACAUCUACGAAUUCGUACCUUAGAGAGGUUAUCCGCUCACCGAGAUCGGAAGAGCACACGU
B2: target 1 A1U,C7A (mixed)
RNA 1: B1 RNA 1
RNA 2: B1 RNA 2 with U32A, C45A, A51U
B3: target 1 G5A,A14G (mixed)
RNA 1: B1 RNA 1
RNA 2: B1 RNA 2 with U32A, A38G, G47A
B4: target 1 insA 3' of 22,insG 3' of 14 (mixed)
RNA 1: B1 RNA 1
RNA 2: GGGAAUGGAUCCACAUCUACGAAUUCGUACACAUAGAGAGGGUUAUCCGCUCACCGAGAUCGGAAGAGCACACGU
B5: target 1 insU 3' of 12,insG 3' of 9 (mixed)
RNA 1: B1 RNA 1
RNA 2: GGGAAUGGAUCCACAUCUACGAAUUCGUACCAUAGAGAGGUUUAGUCCGCUCACCGAGAUCGGAAGAGCACACGU
B6: target 1 A1G,A20U (mixed)
RNA 1: B1 RNA 1
RNA 2: B1 RNA 2 with A51G
B7: target 1 G5C,U8A (mixed)
RNA 1: B1 RNA 1
RNA 2: B1 RNA 2 with U32A, U44A, G47C
B8: target 1 G5A,A14C (mixed)
RNA 1: B1 RNA 1
RNA 2: B1 RNA 2 with U32A, A38C, G47A
B9: target 1 insG 3' of 11,insC 3' of 3 (mixed)
RNA 1: B1 RNA 1
RNA 2: B5 RNA 2 with U42G, G45U, U46C, C48G, G49C, C50U, U51C
B10: target 1 insA 3' of 8,insA 3' of 7 (mixed)
RNA 1: B1 RNA 1
RNA 2: B5 RNA 2 with U43A, A44U, G45A, U46C, C47A
B11: target 1 A1C,C7A (mixed)
RNA 1: B1 RNA 1
RNA 2: B1 RNA 2 with U32A, C45A, A51C
B12: target 1 insA 3' of 13,insG 3' of 9 (mixed)
RNA 1: B1 RNA 1
RNA 2: B5 RNA 2 with G40A, U41G
B13: target 1 C6G,C7A (mixed)
RNA 1: B1 RNA 1
RNA 2: B1 RNA 2 with U32A, C45A, C46G
B14: target 1 insU 3' of 22,insU 3' of 21 (mixed)
RNA 1: B1 RNA 1
RNA 2: B5 RNA 2 with C31U, A32C, G35U, G40A, U41G, U42G, A44U, G45A
B15: target 1 C7A,G15U (mixed)
RNA 1: B1 RNA 1
RNA 2: B1 RNA 2 with U32A, G37U, C45A
B16: target 1 insU 3' of 14,insG 3' of 1 (mixed)
RNA 1: B1 RNA 1
RNA 2: GGGAAUGGAUCCACAUCUACGAAUUCGUACCAUAGAGAUGGUUAUCCGCUCAGCCGAGAUCGGAAGAGCACACGU
B17: target 1 insA 3' of 15,insG 3' of 10 (mixed)
RNA 1: B1 RNA 1
RNA 2: B5 RNA 2 with G39A, U41G, A44G, G45A
B18: target 1 insU 3' of 14,insA 3' of 2 (mixed)
RNA 1: B1 RNA 1
RNA 2: B16 RNA 2 with G53A
B19: target 1 insU 3' of 22,insC 3' of 8 (mixed)
RNA 1: B1 RNA 1
RNA 2: B4 RNA 2 with A31U, G42U, U44A, A45U, U46C
B20: target 1 C7A (mixed)
RNA 1: B1 RNA 1
RNA 2: B1 RNA 2 with U32A, C45A
B21: target 1 G17A,U19C (mixed)
RNA 1: B1 RNA 1
RNA 2: B1 RNA 2 with U32A, U33C, G35A
B22: target 1 insG 3' of 19,insU 3' of 6 (mixed)
RNA 1: B1 RNA 1
RNA 2: B4 RNA 2 with A31C, C32A, A33U, U34G, G42U, U44A, A45U, U46C, C48U
B23: target 1 insC 3' of 5,insC 3' of 5 (mixed)
RNA 1: B1 RNA 1
RNA 2: B5 RNA 2 with U43A, A44U, G45C, U46C, C47G, G49C
B24: target 1 insC 3' of 17 (mixed)
RNA 1: B1 RNA 1
RNA 2: GGGAAUGGAUCCACAUCUACGAAUUCGUACCAUAGCAGAGGUUAUCCGCUCACCGAGAUCGGAAGAGCACACGU
B25: target 1 insU 3' of 14,insC 3' of 1 (mixed)
RNA 1: B1 RNA 1
RNA 2: B16 RNA 2 with G53C
B26: target 1 insG 3' of 19,insG 3' of 4 (mixed)
RNA 1: B1 RNA 1
RNA 2: GGGAAUGGAUCCACAUCUACGAAUUCGUACCAUGAGAGAGGUUAUCCGCGUCACCGAGAUCGGAAGAGCACACGU
B27: target 1 insC 3' of 20,insA 3' of 5 (mixed)
RNA 1: B1 RNA 1
RNA 2: B26 RNA 2 with U33C, G34U, C49A, G50C

The target in this data set is T1, EsCas13d, nuclease-dead. In words: crRNA (strand 1, pre-loaded); Mg2+; 40 mM Tris-HCl pH 7.5, 150 mM NaCl, 6 mM MgCl2, 1 mM DTT, 0.1% Tween-20, 0.2 mg/ml BSA; 25 C; 10 min per concentration, then washed. To be noted: tags: His6-TwinStrep-SUMO cleaved; N-terminal SNAP kept (SNAP-Surface 488); label: 3' end held by stalled T7 RNA polymerase.
B1: the Kd stood at 50 ± 5 nM.

B2 returned a Kd of 9.4 ± 1 nM. This Kd lies about 5.3-fold lower than the previous one.

As to B3, the Kd stood at 42 ± 4 nM. In turn, B4 registered a Kd of 21.7 ± 3.2 nM. B5: the Kd was 13.3 ± 0.8 nM. Against the preceding molecule, the Kd is about 1.6-fold lower. As for B6, the figure is 37.8 ± 2.3 nM. The value for B7 was 38 ± 5 nM; that for B8 was 81 ± 34 nM. With B9, the Kd was determined as 51 ± 8 nM. The value for B10 was 11.3 ± 0.5 nM. The value for B11 was 9.8 ± 0.6 nM. The value for B12 was 6.9 ± 0.5 nM; that for B13 was 8.9 ± 0.4 nM; that for B14 was 85 ± 28 nM. Molecule B15 returned a Kd of 19.6 ± 2.1 nM. The molecule B16 had a Kd of 45 ± 4 nM. As for B17, the figure is 13.6 ± 1.8 nM.

For the molecule B18, the Kd amounted to 43 ± 6 nM. The value for B19 was about 100 nM. Molecule B20 yielded a Kd of 7.8 ± 0.4 nM. Regarding B21, binding was characterised by a dissociation constant (Kd) of 46 ± 6 nM. The value for B22 was 82 ± 9 nM; that for B23 was 25.7 ± 3.2 nM.

For B24, binding was characterised by a dissociation constant (Kd) of 50 ± 11 nM. The molecule B25 showed a Kd of 42 ± 7 nM. As for B26, the figure is 34.6 ± 1.9 nM; as for B27, 7.3 ± 1.1 nM.
